Laboratory results as given in patent US20160264649A1.

Columns and labels:
Assay in all cases: cell-based or functional assay
[1] = biological target: HIV-1 MGRM-AE-005 Env (HIV-1)
[2] = biological target: HIV-1 MGRM-A-012 Env (HIV-1)
[3] = biological target: HIV-1 MGRM-AG-012 Env (HIV-1)
[4] = biological target: HIV-1 MGRM-A-005 Env (HIV-1)
[5] = biological target: HIV-1 MGRM-A-007 Env (HIV-1)
HIV-1 CMU02 Env (HIV-1) = biological target: HIV-1 CMU02 Env (HIV-1)
[6] = biological target: HIV-1 MGRM-A-001 Env (HIV-1)
[7] = biological target: HIV-1 92TH021 Env (HIV-1)
[8] = biological target: HIV-1 MGRM-AE-008 Env (HIV-1)
[9] = biological target: HIV-1 MGRM-A-006 Env (HIV-1)
[10] = biological target: HIV-1 92WR024 Env (HIV-1)
[11] = biological target: HIV-1 MGRM-A-002 Env (HIV-1)
[12] = biological target: HIV-1 92WR026 Env (HIV-1)
[13] = biological target: HIV-1 Env of isolate MG RM-C-024 (subtype C) (HIV-1)
[14] = biological target: HIV-1 MGRM-AG-009 Env (HIV-1)
[15] = biological target: HIV-1 MGRM-AG-006 Env (HIV-1)
HIV-1 VLGCA1 Env (HIV-1) = biological target: HIV-1 VLGCA1 Env (HIV-1)
[16] = biological target: HIV-1 MGRM-AE-003 Env (HIV-1)
[17] = biological target: HIV-1 92RW008 Env (HIV-1)
[18] = biological target: HIV-1 94KE105 Env (HIV-1)
[19] = biological target: HIV-1 MGRM-AE-001 Env (HIV-1)
[20] = biological target: HIV-1 MGRM-A-013 Env (HIV-1)
[21] = biological target: HIV-1 MGRM-A-011 Env (HIV-1)
[22] = biological target: HIV-1 MGRM-A-004 Env (HIV-1)
[23] = biological target: HIV-1 MGRM-A-009 Env (HIV-1)
[24] = biological target: HIV-1 MGRM-AG-003 Env (HIV-1)
[25] = biological target: HIV-1 92UG031 Env (HIV-1)
[26] = biological target: HIV-1 MGRM-A-008 Env (HIV-1)
[27] = biological target: HIV-1 92WR020 Env (HIV-1)
[28] = biological target: HIV-1 MGRM-AE-002 Env (HIV-1)
[29] = biological target: HIV-1 Env of isolate MG RM-C-023 (subtype C) (HIV-1)
[30] = biological target: HIV-1 MGRM-AG-011 Env (HIV-1)
[31] = biological target: HIV-1 MGRM-AE-004 Env (HIV-1)
[32] = biological target: HIV-1 Env of isolate MG RM-C-020 (subtype C) (HIV-1)
[33] = biological target: HIV-1 92WR021 Env (HIV-1)
[34] = biological target: HIV-1 MGRM-A-014 Env (HIV-1)
[35] = biological target: HIV-1 MGRM-AG-008 Env (HIV-1)
[36] = biological target: HIV-1 MGRM-AE-007 Env (HIV-1)
[37] = biological target: HIV-1 Env of isolate MG RM-C-022 (subtype C) (HIV-1)
[38] = biological target: HIV-1 MGRM-A-010 Env (HIV-1)
[39] = biological target: HIV-1 Env of isolate MG RM-C-025 (subtype C) (HIV-1)
[40] = biological target: HIV-1 93WR029 Env (HIV-1)
[41] = biological target: HIV-1 MGRM-AE-006 Env (HIV-1)
[42] = biological target: HIV-1 Env of isolate MG RM-C-019 (subtype C) (HIV-1)
[43] = biological target: HIV-1 Env of isolate MG RM-C-026 (subtype C) (HIV-1)
[44] = biological target: HIV-1 94UG103 Env (HIV-1)
[45] = biological target: HIV-1 Env of isolate MG RM-C-027 (subtype C) (HIV-1)
[46] = biological target: HIV-1 MGRM-A-003 Env (HIV-1)
[47] = biological target: HIV-1 92WR009 Env (HIV-1)
[48] = biological target: HIV-1 MGRM-AG-005 Env (HIV-1)
[49] = biological target: HIV-1 93UG077 Env (HIV-1)
[50] = biological target: HIV-1 92UG037 Env (HIV-1)
[51] = biological target: HIV-1 Env of isolate MG RM-C-028 (subtype C) (HIV-1)
[52] = biological target: HIV-1 MGRM-AG-002 Env (HIV-1)
[53] = biological target: HIV-1 MGRM-AG-001 Env (HIV-1)
[54] = biological target: HIV-1 MGRM-AG-013 Env (HIV-1)

With 5136_H01 (PGT-131) (antibody) the IC50 [1] was 0.017 µg/mL, the IC50 [2] was > 50 µg/mL and the IC50 [3] was > 50 µg/mL. The IC50 [4] was > 50 µg/mL, the IC50 [5] was > 50 µg/mL and the IC50 (HIV-1 CMU02 Env (HIV-1)) was > 50 µg/mL. The IC50 [6] was > 50 µg/mL, the IC50 [7] was 0.014 µg/mL and the IC50 [8] was > 50 µg/mL. The IC50 [9] was > 50 µg/mL, the IC50 [10] was > 50 µg/mL and the IC50 [11] was > 50 µg/mL. The IC50 [12] was 0.041 µg/mL, the IC50 [13] was > 50 µg/mL and the IC50 [14] was > 50 µg/mL. For the same substance, the IC50 [15] was 0.019 µg/mL, the IC50 (HIV-1 VLGCA1 Env (HIV-1)) was > 50 µg/mL and the IC50 [16] was 1.41 µg/mL. For the same substance, the IC50 [17] was 1.01 µg/mL, the IC50 [18] was 0.013 µg/mL and the IC50 [19] was 4.8 µg/mL. The IC50 [20] was > 50 µg/mL, the IC50 [21] was > 50 µg/mL and the IC50 [22] was > 50 µg/mL. The IC50 [23] was 0.035 µg/mL, the IC50 [24] was 2.92 µg/mL and the IC50 [25] was > 50 µg/mL. The IC50 [26] was > 50 µg/mL, the IC50 [27] was 0.168 µg/mL and the IC50 [28] was > 50 µg/mL. For the same substance, the IC50 [29] was 0.143 µg/mL, the IC50 [30] was > 50 µg/mL and the IC50 [31] was > 50 µg/mL. For the same substance, the IC50 [32] was > 50 µg/mL, the IC50 [33] was 0.012 µg/mL and the IC50 [34] was 15.4 µg/mL. For the same substance, the IC50 [35] was > 50 µg/mL, the IC50 [36] was 0.026 µg/mL and the IC50 [37] was 0.78 µg/mL. For the same substance, the IC50 [38] was 0.01 µg/mL, the IC50 [39] was > 50 µg/mL and the IC50 [40] was > 50 µg/mL. For the same substance, the IC50 [41] was 0.026 µg/mL, the IC50 [42] was 0.021 µg/mL and the IC50 [43] was 1.67 µg/mL. The IC50 [44] was 1.1 µg/mL, the IC50 [45] was 0.065 µg/mL and the IC50 [46] was > 50 µg/mL. The IC50 [47] was 3.12 µg/mL, the IC50 [48] was 1.04 µg/mL and the IC50 [49] was > 50 µg/mL. For the same substance, the IC50 [50] was 0.048 µg/mL, the IC50 [51] was > 50 µg/mL and the IC50 [52] was > 50 µg/mL. The IC50 [53] was > 50 µg/mL and the IC50 [54] was 0.03 µg/mL.

With 5114_A19 (PGT-128) (antibody) the IC50 [1] was 0.032 µg/mL, the IC50 [2] was 0.025 µg/mL and the IC50 [3] was > 50 µg/mL. The IC50 [4] was > 50 µg/mL, the IC50 [5] was > 50 µg/mL and the IC50 (HIV-1 CMU02 Env (HIV-1)) was > 50 µg/mL. For the same substance, the IC50 [6] was > 50 µg/mL, the IC50 [7] was 0.01 µg/mL and the IC50 [8] was > 50 µg/mL. The IC50 [9] was > 50 µg/mL, the IC50 [10] was > 50 µg/mL and the IC50 [11] was 0.149 µg/mL. The IC50 [12] was 0.01 µg/mL, the IC50 [13] was > 50 µg/mL and the IC50 [14] was 0.021 µg/mL. For the same substance, the IC50 [15] was 0.009 µg/mL, the IC50 (HIV-1 VLGCA1 Env (HIV-1)) was 0.838 µg/mL and the IC50 [16] was 0.18 µg/mL. The IC50 [17] was 0.003 µg/mL, the IC50 [18] was 0.007 µg/mL and the IC50 [19] was 0.069 µg/mL. For the same substance, the IC50 [20] was 0.008 µg/mL, the IC50 [21] was > 50 µg/mL and the IC50 [22] was > 50 µg/mL. The IC50 [23] was 0.005 µg/mL, the IC50 [24] was 34.8 µg/mL and the IC50 [25] was > 50 µg/mL. For the same substance, the IC50 [26] was > 50 µg/mL, the IC50 [27] was 0.005 µg/mL and the IC50 [28] was 0.522 µg/mL. For the same substance, the IC50 [29] was 0.026 µg/mL, the IC50 [30] was 3.93 µg/mL and the IC50 [31] was > 50 µg/mL. The IC50 [32] was 5.85 µg/mL, the IC50 [33] was 0.005 µg/mL and the IC50 [34] was 0.007 µg/mL. For the same substance, the IC50 [35] was 0.668 µg/mL, the IC50 [36] was > 50 µg/mL and the IC50 [37] was 0.042 µg/mL. The IC50 [38] was 0.005 µg/mL, the IC50 [39] was 10.5 µg/mL and the IC50 [40] was > 50 µg/mL. The IC50 [41] was 0.044 µg/mL, the IC50 [42] was 0.01 µg/mL and the IC50 [43] was 0.007 µg/mL. For the same substance, the IC50 [44] was 0.011 µg/mL, the IC50 [45] was 0.081 µg/mL and the IC50 [46] was > 50 µg/mL. For the same substance, the IC50 [47] was 0.812 µg/mL, the IC50 [48] was 0.037 µg/mL and the IC50 [49] was 0.014 µg/mL. It also gave an IC50 [50] of 0.006 µg/mL, an IC50 [51] of 14.4 µg/mL and an IC50 [52] of 4.99 µg/mL. It also gave an IC50 [53] of 4.73 µg/mL and an IC50 [54] of 0.004 µg/mL.
